Assay results as given in US20250009896.

Tested on: T1, Free DX600 peptide
T1 sequence: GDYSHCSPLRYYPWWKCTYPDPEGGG

“Recombinant human angiotensin-converting enzyme 2 (ACE2) protein, carrier-free (R&D Systems)” was tested, and the “initial velocity of ACE2 cleavage of fluorogenic substrate” value was “there is no appreciable difference in the initial velocity of ACE2 cleavage in the presence of Ligand in comparison to the free DX600 peptide alone”.
